Columns and labels:
THP-1 cells = assay: Viability of THP-1 cells transduced with non-target or Cxcr2 shRNA treated with LukED; assay type: cell-based, human; details: Cxcr2 shRNA versus non-target shRNA
Description: (§1) Cell culture conditions and viral transductions. Primary human cells and THP-1 were cultured at 37° C. with 5% CO2 in RPMI supplemented with 10% fetal bovine serum (FBS; Atlanta Biologicals) and penicillin (100 U ml-1) and streptomycin (0.1 mg ml-1) (Mediatech) unless stated otherwise. Overexpression and lentiviral-based knockdown of Cxcr2 or non-target shRNA were performed as previously described (Wan et al., “Cytokine Signals Through PI-3 Kinase Pathway Modulate Th17 Cytokine Production by CCR6+ Human Memory T Cells,” J. Exp. Med. 208:1875-1887 (2011), which is hereby incorporated by reference in its entirety) and maintained in 1.3 μg ml-1 puromycin. HEK293T cells were cultured at 37° C. with 5% CO2 in DMEM (Cellgro) and supplemented as described above.
(§2) Leukotoxin treatments. HEK293T cells, THP-1, primary human PBMCs and primary murine peritoneal exudate cells were treated with LukE, LukD or LukED as previously described (Alonzo et al., “CCR5 is a Receptor for Staphylococcus aureus Leukotoxin ED,” Nature 493:51-55 (2013), which is hereby incorporated by reference in its entirety). In all experiments 1-2×10^5 cells were seeded into 96-well plates. […]

CXCR2 = molecular target: T1, CXCR2 (Homo sapiens, UniProt P25025); assay: Toxin susceptibility of HEK293T cells transfected with chemokine receptor CXCR2; assay type: cell-based; parameters: expressed in transfected cells; host or cells: HEK293T; details: viability (600 nM) or ethidium bromide permeability (1 hr; HlgAB/HlgCB 20 μg/ml)
T1 sequence (P25025 1-360): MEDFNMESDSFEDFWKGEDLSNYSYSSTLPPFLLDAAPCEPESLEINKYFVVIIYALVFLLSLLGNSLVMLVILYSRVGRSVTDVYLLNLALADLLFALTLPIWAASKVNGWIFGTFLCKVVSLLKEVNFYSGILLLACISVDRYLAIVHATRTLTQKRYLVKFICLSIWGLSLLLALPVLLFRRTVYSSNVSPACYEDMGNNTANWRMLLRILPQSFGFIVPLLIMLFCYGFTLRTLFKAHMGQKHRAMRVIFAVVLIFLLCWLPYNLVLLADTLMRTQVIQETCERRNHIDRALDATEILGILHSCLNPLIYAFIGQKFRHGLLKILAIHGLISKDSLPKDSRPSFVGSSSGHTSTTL
Description: as §1, §2

[1] = test system: PBMC subsets (NK cells, CD8^+ T cells, monocytes); assay: Susceptibility of PBMC subsets to toxins, flow cytometry; assay type: cell-based, human
Description: (§3) Isolation of PBMCs. Blood was obtained as buffy coats with the consent of de-identified donors from the New York Blood Center. PBMCs were isolated from blood using a Ficoll-Paque PLUS gradient (GE Amersham) and gated on CCR5^+ cells, followed by anti-CD3 and CD14 cell surface staining for lymphocyte and monocyte populations. Cells were then incubated with LukED (75 nM) in the presence or absence of maraviroc (MVC, 100 ng ml-1).
(§4) FACS analysis. Cell staining was performed as described previously (Alonzo et al., “CCR5 is a Receptor for Staphylococcus aureus Leukotoxin ED,” Nature 493:51-55 (2013), which is hereby incorporated by reference in its entirety). FACS data were obtained using FACSDiva software on a LSRII flow cytometer (BD Biosciences). Data was analyzed using FlowJo software (Treestar).
as §2

monocytes within PBMCs = assay: LukED treatment of human PBMCs, CD14/CD3 flow cytometry; assay type: cell-based; details: PBMCs from a Δ32Ccr5 donor; LukED 75 nM
Description: as §3
CCR5 inhibitor and ligands. Maraviroc was obtained through the AIDS Research and Reference Reagent Program, Division of AIDS (NIAID, NIH) and used at a final concentration of 100 ng ml-1.
as §4, §2

DARC = molecular target: T2, DARC (Homo sapiens, UniProt Q16570); assay: Toxin susceptibility of HEK293T cells transfected with DARC; assay type: cell-based; details: ethidium bromide permeability (1 hr; HlgAB/HlgCB 20 μg/ml)
T2 construct: expressed in transfected cells; host or cells: HEK293T
T2 sequence (Q16570 1-336): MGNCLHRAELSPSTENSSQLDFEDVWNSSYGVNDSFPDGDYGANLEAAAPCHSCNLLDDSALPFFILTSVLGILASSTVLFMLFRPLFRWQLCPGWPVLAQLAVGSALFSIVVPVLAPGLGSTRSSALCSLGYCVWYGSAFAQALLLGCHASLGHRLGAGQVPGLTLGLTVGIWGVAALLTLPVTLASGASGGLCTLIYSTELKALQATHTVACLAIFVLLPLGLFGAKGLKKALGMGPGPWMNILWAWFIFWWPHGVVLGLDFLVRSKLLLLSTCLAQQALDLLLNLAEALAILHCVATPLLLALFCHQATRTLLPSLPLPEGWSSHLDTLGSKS

CXCR1 = molecular target: T3, CXCR1 (Homo sapiens, UniProt P25024); assay: Toxin susceptibility of HEK293T cells transfected with chemokine receptor CXCR1; assay type: cell-based; parameters: expressed in transfected cells; host or cells: HEK293T; details: viability (600 nM) or ethidium bromide permeability (1 hr; HlgAB/HlgCB 20 μg/ml)
T3 sequence (P25024 1-350): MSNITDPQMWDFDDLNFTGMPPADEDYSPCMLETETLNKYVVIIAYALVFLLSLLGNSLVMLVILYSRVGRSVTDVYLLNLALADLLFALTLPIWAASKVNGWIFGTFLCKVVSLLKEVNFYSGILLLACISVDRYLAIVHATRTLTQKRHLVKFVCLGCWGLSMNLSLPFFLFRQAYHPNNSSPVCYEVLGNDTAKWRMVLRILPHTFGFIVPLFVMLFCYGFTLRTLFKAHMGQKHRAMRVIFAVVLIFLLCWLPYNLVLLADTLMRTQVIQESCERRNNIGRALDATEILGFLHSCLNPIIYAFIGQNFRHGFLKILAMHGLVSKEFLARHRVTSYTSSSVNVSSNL

CCR5 = molecular target: T4, CCR5 (Homo sapiens, UniProt P51681); assay: Toxin susceptibility of HEK293T cells transfected with CCR5; assay type: cell-based; details: ethidium bromide permeability (1 hr; HlgAB 20 μg/ml)
T4 construct: expressed in transfected cells; host or cells: HEK293T
T4 sequence (P51681 whole entry): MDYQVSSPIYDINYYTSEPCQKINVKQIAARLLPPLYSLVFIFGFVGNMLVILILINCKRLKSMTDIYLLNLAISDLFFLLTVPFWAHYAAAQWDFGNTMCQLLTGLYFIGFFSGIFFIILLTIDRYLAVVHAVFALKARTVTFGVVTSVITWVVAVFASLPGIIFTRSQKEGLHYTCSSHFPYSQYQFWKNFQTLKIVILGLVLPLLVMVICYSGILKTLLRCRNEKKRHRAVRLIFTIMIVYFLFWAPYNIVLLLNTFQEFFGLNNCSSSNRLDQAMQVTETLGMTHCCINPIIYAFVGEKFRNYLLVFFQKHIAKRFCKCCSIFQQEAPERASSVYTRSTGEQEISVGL

mice = assay: Survival of mice upon bloodstream (intravenous) administration of purified toxin; assay type: in vivo, mouse; details: intravenous injection, 10 μg of each subunit, n=5
[2] = test system: murine peritoneal exudate cells (PMNs, CCR5^+ macrophages); assay: Killing of murine peritoneal exudate cells (PEC) by toxins in vitro; assay type: cell-based, mouse; details: 300 nM
Description: Murine in vitro and in vivo experiments. To evaluate LukED-mediated killing of murine cells in vitro, C57BL/6 WT mice (Taconic) were injected intraperitoneally with 1×10^7 CFU of heatkilled S. aureus Newman ΔlukED. Twenty-four hours post injection, another dose of 1×10^7 CFU of heat-killed S. aureus Newman ΔlukED was injected as before. After an additional twenty-four hours, mice were sacrificed and immune cells were collected by peritoneal cavity lavage using 8 ml of PBS. Red blood cells were lysed using 2 ml ACK lysis buffer (Gibco) followed by resuspension of remaining peritoneal exudate cells in RPMI+10% FBS. Cells were incubated with PBS, LukED or LukE^DR4D (300 nM) and incubated for 30 minutes on ice. After incubation, the cells were washed three times with PBS then stained with the fixable viability dye eFluor-450, followed by cell surface staining with CD11b, B220, F480, CD3, Ly6G, CCR5 and CXCR2 antibodies. Cell viability of specific immune cell populations was subsequently analyzed on an LSRII flow cytometer (BD). FACS plots are representative of results obtained from cells isolated from at least 3 independent animals.

human RBCs = assay: LukED-mediated lysis of human red blood cells; assay type: cell-based; details: RBCs from nine donors, DARC+ and DARC−
human PMNs = assay: Viability of primary human neutrophils (PMNs) treated with leukotoxins; assay type: cell-based

B1: LukED: S. aureus bicomponent pore-forming leukotoxin leukocidin E/D, LukE plus LukD subunits (protein)
chain 1: NTNIENIGDGAEVIKRTEDVSSKKWGVTQNVQFDFVKDKKYNKDALIVKMQGFINSRTSFSDVKGSGYELTKRMIWPFQYNIGLTTKDPNVSLINYLPKNKIETTDVGQTLGYNIGGNFQSAPSIGGNGSFNYSKTISYTQKSYVSEVDKQNSKSVKWGVKANEFVTPDGKKSAHDRYLFVQSPNGPTGSAREYFAPDNQLPPLVQSGFNPSFITTLSHEKGSSDTSEFEISYGRNLDITYATLFPRTGIYAERKHNAFVNRNFVVRYEVNWKTHEIKVKGHN
chain 2: AQHITPVSEKKVDDKITLYKTTATSDNDKLNISQILTFNFIKDKSYDKDTLVLKAAGNINSGYKKPNPKDYNYSQFYWGGKYNVSVSSESNDAVNVVDYAPKNQNEEFQVQQTLGYSYGGDINISNGLSGGLNGSKSFSETINYKQESYRTTIDRKTNHKSIGWGVEAHKIMNNGWGPYGRDSYDPTYGNELFLGGRQSSSNAGQNFLPTHQMPLLARGNFNPEFISVLSHKQNDTKKSKIKVTYQREMDRYTNQWNRLHWVGNNYKNQNTVTFTSTYEVDWQNHTVKLIGTDSKETNPGV
modifications: left off: small tags and cut ends
notes: S. aureus bicomponent pore-forming leukotoxin leukocidin E/D, LukE plus LukD subunits
THP-1 cells
  LukED killing of THP-1 cells after CXCR2 knockdown: rendered cells resistant to LukED killing
CXCR2
  susceptibility of CXCR2-transfected HEK293T cells to toxin: sufficient to render HEK293T cells susceptible
[1]
  cytotoxicity to NK cells and CD8+ T cells in PBMCs: cytotoxic to the majority of NK cells and a subset of CD8^+ T cells
Monocytes within PBMCs
  LukED targeting of monocytes: targeted in a LukED-mediated, CCR5-independent manner
DARC
  susceptibility of DARC-transfected HEK293T cells to toxin: sufficient to render HEK293T cells susceptible
CXCR1
  susceptibility of CXCR1-transfected HEK293T cells to toxin: sufficient to render HEK293T cells susceptible
CCR5
  susceptibility of CCR5-transfected HEK293T cells to toxin: targets CCR5, CXCR1, CXCR2, and DARC to kill host cells
mice
  lethality in mice: rapid death
[2]
  susceptibility of murine CCR5+ macrophages: equally susceptible to both LukED and LukE^DR4D
[2]; 30 minutes on ice
  murine PMNs killed: ~79%
Human RBCs
  hemolysis of human RBCs: some donors were susceptible to LukED hemolysis while others were not
Human PMNs; LukE or alanine mutant mixed equimolar with LukD, n=8 donors
  cytotoxic activity against hPMNs: targeted and killed the hPMNs
Human PMNs; PMNs from Ccr5+/+ and Δ32Ccr5 donors, 75 nM
  susceptibility of PMNs to toxin (viability): equally susceptible to LukED
